Tested on: MS2 coat protein
Assay: apparent KD of MS2 coat protein; designed switch direction (-1 OFF switch, 1 ON switch): -1; higher = weaker reporter binding
How it was run: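 On Illumina chips, designed RNA switches with common flanks were made by stalled E. coli RNA polymerase. Titrations with SNAP-549-labelled MS2 coat protein, doubling from 0.7 or 1.5 nM to 3 µM, were done with no input, with 200 uM small-molecule ligand, or with an oligonucleotide input. Apparent KD is the median per design over clusters, from curve fits of normalised cluster fluorescence.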

[1] = Eterna round: R95, input ligand: FMN 200 uM
[2] = Eterna round: R95, input ligand: microRNA oligo, concentration not stated
[3] = Eterna round: R95, input ligand: none
[4] = input ligand: microRNA oligo, concentration not stated

Sequence | apparent KD of MS2 coat protein [1] [nM] | apparent KD of MS2 coat protein [2] [nM] | apparent KD of MS2 coat protein [3] [nM] | apparent KD of MS2 coat protein (input ligand: FMN 200 uM) [nM] | apparent KD of MS2 coat protein (input ligand: none) [nM] | apparent KD of MS2 coat protein [4] [nM]
CCCGGGCGAGGAUAUACAUGAGGAUCACCCAUGUUGGGCUAGUUGGUGGCUCCUCGCGGUAGAAGGCGCACGCG [Edna] (puzzle: Exclusion 3) | 123 | 64.5 | 74.6 |  |  | 
CCCGGGUUAGGAUAUGGGCCCGGGCCCGAAAGGGCCCGGGCCCAGAAGGGACAUGAGGAUCACCCAUGUCCGGG [-53.1, -49.1 kcal, 20% A] (Eterna round: R97, puzzle: Exclusion 4) |  |  |  | 22.1 | 19.9 | 
CCCGUCGAUGUAGGAUAUGCCCGGGUCUCCCGGGCAGAAGGACAUGAGGAUCACCCAUGUUCAUGAGCAUCAGCCAUGAAUGGG [Double but mutated MS2] (Eterna round: R96, puzzle: Exclusion NG 1) |  |  |  | 12.8 | 20.2 | 12.7
CCCGUGUUAGGAUAUACGGCACACCCACAAACGGGUAUAUAGUAGAAGGAACAUGAGGAUCACCCAUGUAAAAC [Qubexeer] (puzzle: Exclusion 4) |  | 18.5 |  |  |  | 
CCCUCACAUGAGGAUCACCCAUGUAAGGAUAUCUUCGAUUUGACGUGGUUGGAUGCGAAGAGAAGGUACAAGGC [jl-ex1-4.72 ViennaUCT mod] (Eterna round: R97, puzzle: Exclusion 1) |  |  |  | 35.9 | 20.6 | 
CCCUCACAUGAGGAUCACCCAUGUCAGGAUAUCUCACAUCAGCCUUAGGCCGAUGUCUAGAGAAGGGACGUAUC [Latees] (puzzle: Exclusion 1) |  | 21.3 |  |  |  | 
CCCUGCAACUGAGGAUAUCACGGACACCGACGUUGAGAAGGCAGACAUGAGGAUCACCCAUGUGAUUUCUCAAUGCUAAACAUU (Eterna round: R96, puzzle: Exclusion NG 1) |  |  |  | 66.4 | 36.8 | 29.6
CCGAAAAUGCAGGAUAUCGUAUCGGAAACGAUACGAGAAGGGCAAACAUGAGGAUCACCCAUGUUCCUUAACGG [Mat - Exclusion 6 - Eli Mod - D76] (puzzle: Exclusion 6) | 21.3 | 19.4 | 18.9 |  |  | 
CCGAAUAAGCAGGAUAUCGUAUCGGAAACGAUACGAGAAGGGCUAACAUGAGGAUCACCCAUGUUCCUUAACGG [Fiskers Ex 6 - 15] (puzzle: Exclusion 6) |  | 19.2 |  |  |  | 
CCGACCCUAGGAUAUUGUACUGCUGACAUGAGGAUCACCCAUGUAUGUUAACUCGGCCGACGAGAAGGAGGCGAAA [BotMod 5 - Jieux - Exclusion 5] (Eterna round: R97, puzzle: Exclusion 5) |  |  |  | 21.7 | 20.3 | 
CCGACGUGAGGAUAUCCAUCUGGAUCAGACUAGAUCCUGAUGGAGAAGGCACAUGAGGAUCACCCAUGUCACGG [Eli 4x 4.48] (Eterna round: R97, puzzle: Exclusion 4) |  |  |  | 413 | 140 | 
CCGAGCAAGGUGAGGAUAUUAAGAGCUACAGAGCAUGAGAAGGCACAUGAGGAUCACCCAUGUUACUACAGGGA [Eternabot (L1) Solution 66] (Eterna round: R97, puzzle: Brourd's mod of Exclusion 4) |  |  |  | 54.9 | 54 | 
CCGAGCAGACGGAGAUCCAACAUGAGGAUCACCCAUGUCUCAAAAGCUUUUUGCUUGUCUUAUUCUCCUCUGUUCUC [Qureorxe] (Eterna round: R96, puzzle: Sensor v3, turn-off variant 1) |  |  |  | 13 | 15.6 | 29.6
CCGAGCAGACGGAGAUCCAACAUGAGGAUCACCCAUGUCUCAAAAGCUUUUUGCUUGUCUUAUUCUCCUCUGUUCUC [Qureorxe] (puzzle: Sensor v3, turn-off variant 1) | 12.5 | 29.2 | 11.3 |  |  | 
CCGAGGUGGCGGUCCUAUGACAUGAGGAUCACCCAUGUACCUCGCCACGAGCUUUUUGCUCAUCUUAUAAUUCUCGG [Edbibice] (puzzle: Sensor v3, turn-off variant 1) | 17.2 | 18.9 | 16.6 |  |  | 
CCGAGUCGAGUGAGGAUAUAGCUAAGACCGCUUAGCUAGAAGGCACAUGAGGAUCACCCAUGUCUUAGGAGAAG [Eternabot (L1) Solution 80] (Eterna round: R97, puzzle: Brourd's mod of Exclusion 4) |  |  |  | 22.4 | 22.2 | 
